Assay results from publication PMC3513293 (PLoS ONE, 2012).

Key:
[1] = molecular target: T1, p97/Valosin-containing protein (VCP), full length (UniProt P55072 1-806); test: SPR; Biacore 3000; p97/VCP immobilised on CM5 by amine coupling; two-fold dilution series of p47 (from 1.92 μM) or UN (from 1.88 μM) injected at 30 μl/min, 25°C, PBS with 5 mM β-mercaptoethanol and 0.005% p20; no nucleotide; Langmuir 1:1 fit (p47) or Interaction Map Analysis (UN); conditions: both partners purified
T1 construct: Homohexamer by gel filtration and DLS; also called p97/VCP; full length p97; source: E. coli Rosetta DE3, purified (nickel IMAC, Superose 6 gel filtration; hexameric 13.5 ml fraction)

[2] = molecular target: the molecule itself; test: SEC; Superose 6 10/300 GL in PBS with 5 mM β-mercaptoethanol and 0.005% p20; calibrated with thyroglobulin, ferritin, lactate dehydrogenase and BSA
[3] = molecular target: T1, p97/Valosin-containing protein (VCP), …; test: SPR; Biacore 3000; p47 immobilised on CM5 by amine coupling; p97/VCP injected, 30 μl/min, 25°C, PBS; Langmuir 1:1 fit; conditions: both partners purified

T1 sequence (P55072 whole entry): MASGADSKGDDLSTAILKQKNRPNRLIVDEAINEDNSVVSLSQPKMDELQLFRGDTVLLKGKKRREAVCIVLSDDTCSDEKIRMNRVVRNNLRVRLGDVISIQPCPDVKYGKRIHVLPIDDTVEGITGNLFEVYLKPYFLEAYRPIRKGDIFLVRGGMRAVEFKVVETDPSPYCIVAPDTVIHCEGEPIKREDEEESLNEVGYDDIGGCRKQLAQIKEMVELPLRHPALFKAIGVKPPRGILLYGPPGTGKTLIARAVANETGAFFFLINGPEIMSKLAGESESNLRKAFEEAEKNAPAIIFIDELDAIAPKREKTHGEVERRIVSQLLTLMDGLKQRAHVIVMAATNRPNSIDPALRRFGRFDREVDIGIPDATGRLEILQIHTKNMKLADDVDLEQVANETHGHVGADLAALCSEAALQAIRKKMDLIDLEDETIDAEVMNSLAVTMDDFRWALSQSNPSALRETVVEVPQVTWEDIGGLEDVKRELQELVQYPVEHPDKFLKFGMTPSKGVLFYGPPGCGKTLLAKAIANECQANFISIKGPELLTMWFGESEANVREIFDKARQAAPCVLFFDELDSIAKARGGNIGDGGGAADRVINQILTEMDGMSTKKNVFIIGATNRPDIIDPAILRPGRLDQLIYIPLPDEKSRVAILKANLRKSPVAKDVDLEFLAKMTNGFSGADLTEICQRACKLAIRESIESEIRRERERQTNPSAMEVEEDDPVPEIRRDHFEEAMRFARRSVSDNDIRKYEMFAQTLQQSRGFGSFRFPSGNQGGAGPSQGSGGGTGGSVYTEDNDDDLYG

B1: p47 (natural protein, UniProt O35987 1-370, looked up)
chain: MAEERQDALREFVAVTGAEEDRARFFLESAGWDLQIALASFYEDGGDEDIVTISQATPSSVSRGTAPSDNRVTSFRDLIHDQDEEEEEEEGQRFYAGGSERSGQQIVGPPRKKSPNELVDDLFKGAKEHGAVAVERVTKSPGETSKPRPFAGGGYRLGAAPEEESAYVAGERRRHSGQDVHVVLKLWKTGFSLDNGDLRSYQDPSNAQFLESIRRGEVPAELRRLAHGGQVNLDMEDHRDEDFVKPKGAFKAFTGEGQKLGSTAPQVLNTSSPAQQAENEAKASSSILINEAEPTTNIQIRLADGGRLVQKFNHSHRISDIRLFIVDARPAMAATSFVLMTTFPNKELADENQTLKEANLLNAVIVQRLT
notes: p47, adaptor protein of p97/VCP; Homotrimer by gel filtration; the printed list of Addgene numbers (17229,21266,21267,21268) has one number more than the three plasmids named, so 21268 may be p47; source: E. coli Rosetta DE3, purified (nickel IMAC, Superose 6 gel filtration; 16.25 ml fraction)
Kd [1]: ~5 µM | stoichiometry N [2]: 3 | Kd [3]: 0.0313 µM
